Test results: article PMC6265302, “Widespread bacterial lysine degradation proceeding via glutarate and L-2-hydroxyglutarate” (Nature Communications, 2018)

Target: the molecule itself
Test: crystal structure; CsiD at 13 mg/mL, sitting drop vapour diffusion, 18 °C; apo and with glutarate, succinate or N-oxalylglycine; symmetry P42(1)2, two copies in the asymmetric unit, tetramer generated by crystallographic symmetry

B1: CsiD (carbon starvation induced protein D), glutarate hydroxylase (enzyme, Escherichia coli, UniProt P76621 1-325, looked up)
chain: MNALTAVQNNAVDSGQDYSGFTLTPSAQSPRLLELTFTEQTTKQFLEQVAEWPVQALEYKSFLRFRVAKILDDLCANQLQPLLLKTLLNRAEGALLINAVGVDDVKQADEMVKLATAVAHLIGRSNFDAMSGQYYARFVVKNVDNSDSYLRQPHRVMELHNDGTYVEEITDYVLMMKIDEQNMQGGNSLLLHLDDWEHLDNYFRHPLARRPMRFAAPPSKNVSKDVFHPVFDVDQQGRPVMRYIDQFVQPKDFEEGVWLSELSDAIETSKGILSVPVPVGKFLLINNLFWLHGRDRFTPHPDLRRELMRQRGYFAYASNHYQTHQ
notes: CsiD of Escherichia coli, ORF amplified from E. coli BW25113 and inserted into pET28a; crystals were apo or held glutarate, succinate or N-oxalylglycine; also called glutarate-2-hydroxylase; G-2-H; source: E. coli BL21 (DE3), purified (Ni-NTA)
B1 was tested, and the “stoichiometry N” value was 4.
